For test [1], the target named is human TPBG protein, full-length, on the cell surface (human) (UniProt Q13641). The test is described as follows: FACS, HEK293 clone 293F-hTPBG 5E5. (Flow cytometry measures light scatter and fluorescence of single cells or particles in a stream.)
The target is the same in test [2]. Put plainly: FACS, HEK293 clone 293F-hTPBG 5C12.
Test [3] has the same target. Put plainly: FACS, HEK293 clone 293F-hTPBG 5H6.
Test [4] shares this target. Put plainly: FACS, CHOk1-hTPBG 3A2F1 cells.
Test [5] shares this target. Put plainly: FACS, HEK293 clone 293F-hTPBG 5E6.
Test [6] has the same target. Put plainly: FACS, HEK293 clone 293F-hTPBG 4C3.
Test [7] shares this target. Put plainly: FACS, HEK293 clone 293F-hTPBG 5G11.
For test [8] the target is unchanged. The test is described as follows: FACS, HEK293 clone 293F-hTPBG 4C5.
The target is the same in test [9]. Put plainly: FACS, HEK293 clone 293F-hTPBG 5G8.
Test [10] shares this target. The test is described as follows: FACS, HEK293 clone 293F-hTPBG 4E1 (NO 8).
Test [11] shares this target. The test is described as follows: FACS, HEK293 clone 293F-hTPBG 5D4.
For test [12] the target is unchanged. Put plainly: FACS, HEK293 clone 293F-hTPBG 4F9.
Test [13] shares this target. The test is described as follows: FACS, HEK293 clone 293F-hTPBG 4E1.
For test [14] the target is unchanged. Put plainly: FACS, HEK293 clone 293F-hTPBG 5A9.
Test [15] deals with mouse TPBG protein, full-length, on the cell surface (mouse) (UniProt Q9Z0L0). The test is described as follows: FACS, CHOk1-mTPBG 3A3 cells.
Test [16] has as its target human TPBG protein, full-length, on the cell surface (human) (UniProt Q13641). The test is described as follows: FACS, HEK293 clone 293F-hTPBG 4A9.
Test [17] has the same target. The test is described as follows: FACS, HEK293 clone 293F-hTPBG 4H12.
For test [18] the target is unchanged. The test is described as follows: FACS, HEK293 clone 293F-hTPBG 4B9.
Test [19] has the same target. The test is described as follows: FACS, HEK293 clone 293F-hTPBG 4G1.
The target is the same in test [20]. Put plainly: FACS, HEK293 clone 293F-hTPBG 4A8.
Test [21] concerns the target cynomolgus TPBG protein, full-length, on the cell surface (cynomolgus) (UniProt Q4R8Y9). The test is described as follows: FACS, CHOk1-cTPBG 3F13G4 cells.
In test [22] the target is human TPBG protein, full-length, on the cell surface (human) (UniProt Q13641). Put plainly: FACS, HEK293 clone 293F-hTPBG 4G6.
Test [23] has the same target. Put plainly: FACS, HEK293 clone 293F-hTPBG 5A11.
Test [24] has as its target T1, human TPBG protein, full-length, on the cell surface (human, UniProt Q13641 32-420).
T1 construct: whole, on cells; Transfected HEK293 (293F-hTPBG clones) and CHO-k1 (CHOk1-hTPBG 3A2F1) cells; also used here for endogenous TPBG on the TPBG-positive tumour lines NCI-H1568, NCI-H1975 and MDA-MB-468 in the killing assays; also called hTPBG; 5T4
T1 sequence (looked up): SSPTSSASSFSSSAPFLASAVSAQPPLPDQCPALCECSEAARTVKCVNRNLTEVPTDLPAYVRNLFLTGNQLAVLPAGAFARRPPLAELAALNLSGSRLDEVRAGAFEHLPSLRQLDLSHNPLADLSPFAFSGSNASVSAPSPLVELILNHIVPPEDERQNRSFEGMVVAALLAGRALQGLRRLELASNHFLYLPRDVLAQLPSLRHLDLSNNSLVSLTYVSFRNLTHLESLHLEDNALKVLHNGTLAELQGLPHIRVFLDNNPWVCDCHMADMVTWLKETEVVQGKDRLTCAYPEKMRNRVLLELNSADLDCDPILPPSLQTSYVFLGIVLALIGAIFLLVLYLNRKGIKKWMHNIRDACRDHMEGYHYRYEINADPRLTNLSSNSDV
Put plainly: FACS on CHOk1-hTPBG cells. An excerpt:
(§1) The stable cell lines CHOk1-hTPBG, CHOk1-cTPBG, CHOk1-mTPBG (i.e. the CHOk1-hTPBG 3A2F1, CHOk1-cTPBG 3F13G4 and CHOk1-mTPBG 3A3 shown in Table 6) and CHO-k1 cells were expanded to a 90% of confluency in T-75 cell culture flasks, and the culture medium were removed. Cells were then rinsed twice with HBSS buffer (Hanks Balanced Salt Solution, purchased from Invitrogen) and […] with enzyme-free cell dissociation buffer (Versene solution was purchased from Life technology) and harvested. Harvested cells were rinsed with HBSS buffer twice and counted before diluting with HBSS buffer to 2×10⁶ cells/mL, and 10% goat serum blocking buffer was then added, wherein the percentage is the mass percentage. Cells were incubated on ice for 30 min, and then washed twice with HBSS buffer by centrifugation. […] The plate was washed with the FACS buffer twice by centrifugation, and 100 μL per well of fluorescence (Alexa 488) labeled secondary antibody (purchased from Invitrogen) was then added and incubated on ice for 1 h. […] The results were measured and analyzed by FACS (FACS Calibur, purchased from BD). The data was analyzed by software (CellQuest) to obtain the mean fluorescence intensity (MFI) of the cells, follow by calculating EC50 value by software (GraphPad Prism) analysis and data fitting.

Test [25] addresses T2, cynomolgus TPBG protein, full-length, on the cell surface (cynomolgus, UniProt Q4R8Y9 35-420).
T2 construct: whole, on cells; also called cTPBG; CHOk1-cTPBG
T2 sequence (looked up): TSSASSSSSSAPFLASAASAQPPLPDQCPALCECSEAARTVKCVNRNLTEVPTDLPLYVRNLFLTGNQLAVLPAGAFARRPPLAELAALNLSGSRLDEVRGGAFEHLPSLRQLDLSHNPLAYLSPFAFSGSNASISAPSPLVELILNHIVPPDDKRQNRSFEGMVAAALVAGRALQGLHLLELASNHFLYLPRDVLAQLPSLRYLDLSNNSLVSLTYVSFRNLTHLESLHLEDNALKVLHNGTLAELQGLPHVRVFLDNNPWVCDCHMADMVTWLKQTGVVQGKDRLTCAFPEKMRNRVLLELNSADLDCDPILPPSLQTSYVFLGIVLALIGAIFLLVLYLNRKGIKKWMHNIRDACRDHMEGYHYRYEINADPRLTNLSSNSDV
The test is described as follows: FACS on CHOk1-cTPBG cells.
Excerpt: as §1

Test [26] addresses T3, mouse TPBG protein, full-length, on the cell surface (mouse, UniProt Q9Z0L0 32-426).
T3 construct: whole, on cells; also called mTPBG; CHOk1-mTPBG
T3 sequence (looked up): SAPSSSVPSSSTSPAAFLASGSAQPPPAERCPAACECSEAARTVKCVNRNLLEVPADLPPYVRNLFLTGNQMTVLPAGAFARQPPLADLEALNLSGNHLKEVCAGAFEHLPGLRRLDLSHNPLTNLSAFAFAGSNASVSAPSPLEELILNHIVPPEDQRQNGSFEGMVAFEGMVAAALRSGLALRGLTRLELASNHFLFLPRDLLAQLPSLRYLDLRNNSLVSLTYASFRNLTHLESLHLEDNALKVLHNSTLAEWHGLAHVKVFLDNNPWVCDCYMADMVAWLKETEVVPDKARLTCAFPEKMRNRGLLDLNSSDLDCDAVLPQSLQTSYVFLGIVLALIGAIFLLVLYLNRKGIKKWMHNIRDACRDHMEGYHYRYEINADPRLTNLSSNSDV
Put plainly: FACS on CHOk1-mTPBG cells.
Excerpt: as §1

Experimental findings from patent publication US20200062856A1 (XDCEXPLORER SHANGHAI, published 2020) are described below.

For “commercially available TPBG antibody (purchased from Sigma, Lot NO: SAB1404485)”, the Cellular MFI in test [1] was found to be 280 MFI; in [2] it was 75.4 MFI; in test [3] it was 36.4 MFI; in [4] it was 798 MFI; in test [5], 13.2 MFI; in [6], 27.2 MFI. Besides, the Cellular MFI in test [7] was found to be 11.3 MFI; in test [8], 172 MFI; in test [9], 168 MFI; in [10], 91.8 MFI; in [11], 70.6 MFI; in test [12] it was 47.7 MFI. The Cellular MFI in test [13] was found to be 145 MFI; in [14], 53.2 MFI; in test [15] it was 135 MFI; in test [16], 204 MFI; in test [17], 9.5 MFI; in [18], 126 MFI. Moreover, the Cellular MFI was 131 MFI in [19]; 33.4 MFI in test [20]; 198 MFI in test [21]; 31.8 MFI in [22]; 166 MFI in test [23].

B1: mouse anti-TPBG monoclonal antibody 12B12C7C3 (antibody, V domains shown)
VH: DVQLVESGGGLVQPGGSRKLSCAASGFTFSNFGMHWVRQAPEKGLEWVAYISSGSTSFYYADTVKGRFTISRDNPKNTLFLQMTSLRSEDTAMYYCSRTNSLLRGFFDAWGAGTTVTVSS
VL: DIVLTQSPASLAVSLGQRATISCRASQSVSSSSYTYLHWYQQKPGQPPKLLIKSASNLESGVPARFSGTGSGTDFTLNIHPVEEEDTATYYCQHSWEIPLTFGAGTKLELK
notes: Mouse antibody purified from hybridoma supernatant; also called 12B12C7C3 (12B12 for short)
The EC50 is the midpoint of the concentration-response curve. Higher therefore signals lower potency in that assay. For B1, the EC50 in test [24] was determined as 0.65 nM; in test [25] it was 0.59 nM. The binding result in test [26] was “no binding”.

B2: mouse anti-TPBG monoclonal antibody 28D4E6A9 (antibody, V domains shown)
VH: DVQLVESGGGLVRPGGSLKLSCAASGFTFSNYVMSWARQSPEKRLEWVAEISTGGSHTYYSDTVTGRFTISRDNAKKALYLEMSSLRSEDTAIYYCIMFYYGSSYSMDYWGQGTSVTVSS
VL: DIQMTQSTSSLSASLGDRITISCRASQDIRNYLNWYQQKPDGTVKLLIYHTSRLHSGVPSRFSGSGSGTDYSLTISNLEQEDIATYFCQQGDTLPLTFGAGTRLELK
notes: Mouse antibody purified from hybridoma supernatant; also called 28D4E6A9 (28D4 for short)
Take B2: the EC50 is 0.63 nM in test [24] and 0.25 nM in test [25]. Besides, the binding result in [26] was “no binding”.
